This passage reports binding results from PMC4043820.

For data set [1], the target named is OsWRKY53SA S43A;S72A;S77A;S89A;S96A;S108A (Oryza sativa (rice)) (UniProt A7BEY7). The data set can be described thus: EMSA. The settings on record: 12 mM HEPES-KOH pH 8.0, 60 mM KCl, 4 mM MgCl2, 1 mM EDTA, 12% glycerol, 1 mM DTT, 2.5 mM PMSF, 0.1 ug protein in 20 ul, 20 min on ice; 6% PAGE in 1x TBE at …. (In general: A gel shift assay detects complexes by their altered migration in electrophoresis.)

For data set [2], the target named is OsWRKY53SD S43D;S72D;S77D;S89D;S96D;S108D (Oryza sativa (rice)) (UniProt A7BEY7). The data set can be described thus: EMSA. The settings on record: 12 mM HEPES-KOH pH 8.0, 60 mM KCl, 4 mM MgCl2, 1 mM EDTA, 12% glycerol, 1 mM DTT, 2.5 mM PMSF, 0.1 ug protein in 20 ul, 20 min on ice; 6% PAGE in 1x TBE at ….
Sequence of OsWRKY53SD S43D;S72D;S77D;S89D;S96D;S108D (Oryza sativa (rice)) (A7BEY7 entry or part of it S43D S72D S77D S89D S96D S108D): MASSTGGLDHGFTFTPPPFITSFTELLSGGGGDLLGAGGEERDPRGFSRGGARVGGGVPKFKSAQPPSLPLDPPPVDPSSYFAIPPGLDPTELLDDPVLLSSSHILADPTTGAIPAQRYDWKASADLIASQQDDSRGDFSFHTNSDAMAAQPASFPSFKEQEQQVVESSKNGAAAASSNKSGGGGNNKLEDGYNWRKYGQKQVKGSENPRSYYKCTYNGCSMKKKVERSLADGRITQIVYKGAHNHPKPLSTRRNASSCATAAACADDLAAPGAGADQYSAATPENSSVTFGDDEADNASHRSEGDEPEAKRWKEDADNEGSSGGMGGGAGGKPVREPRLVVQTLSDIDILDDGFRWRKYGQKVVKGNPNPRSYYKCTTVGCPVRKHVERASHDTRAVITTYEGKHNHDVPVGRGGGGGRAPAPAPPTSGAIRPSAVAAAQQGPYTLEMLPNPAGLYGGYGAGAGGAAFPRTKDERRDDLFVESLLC

Sequence of OsWRKY53SA S43A;S72A;S77A;S89A;S96A;S108A (Oryza sativa (rice)) (A7BEY7 entry or part of it S43A S72A S77A S89A S96A S108A): as the sequence (A7BEY7 entry or part of it S43D S72D S77D S89D S96D S108D) above, with D43A, D72A, D77A, D89A, D96A, D108A counted along it

For the sequence “TTTGGGGATGCTTCGGCGAAGGGGGTGAGGTCAAAGCTCGTGCGGTTTGACCGGTCAGACGAGGCGGCTGAGGCTCGCGC (double strand) [W-box probe (W)]”, the binding result in data set [1] and in data set [2] was “binds” throughout.
